The target of one assay is 野生型EGFR on A431 cells (human, UniProt P00533 25-1210). The assay can be described thus: cell-based or functional assay.
Assay [1] has as its target T1, PD-L1-His (UniProt Q9NZQ7 19-238, limits assumed).
T1 construct: extracellular domain; Made in-house in HEK293F; used as ELISA coat and as Biacore analyte; not shown: C-terminal polyhistidine tag
In words: ELISA, PD-L1-His coated (Fig. 3A). (ELISA stands for enzyme-linked immunosorbent assay.)

For assay [2], the target named is T2, EGFR-ECD-hFc (human, UniProt P00533 25-645).
T2 construct: extracellular domain; Made in-house in HEK293F; ELISA coating antigen; not shown: Fc segment of human IgG1
The assay can be described thus: ELISA, EGFR-ECD-hFc coated (Fig. 3B).

The target in assay [3] is T1, PD-L1-His. The assay can be described thus: ELISA, PD-L1-His coated at 10 ng/well.
Assay [4] addresses T2, EGFR-ECD-hFc. The assay can be described thus: ELISA, EGFR-ECD-hFc coated, HRP anti-human Fab detection (Fig. 2B).

Three molecules from CN113754774A (SUNSHINE GUOJIAN PHARMACEUTICAL SHANGHAI CO LTD, dated 2021) can be followed below.

B1: PDL1-Fab-Cetuximab-IgG1 (bispecific antibody)
heavy: not shown
light: EIVLTQSPDFLSVTPKEKVTITCRASQSIGTTIHWYQQKPDQSPKLLIKYASQSFSGVPSRFSGSGSGTDFTLTINSVEAEDAATYYCQQSNSWPLTFGAGTKLEIKRTVAAPSVFIFPPSDEQLKSGTASVVCLLNNFYPREAKVQWKVDNALQSGNSQESVTEQDSKDSTYSLSSTLTLSKADYEKHKVYACEVTHQGLSSPVTKSFNRGEC
notes: Tetravalent bispecific antibody against PD-L1 and EGFR; two long polypeptide chains and four common light chains
The term EC50 denotes the midpoint of the concentration-response curve. Low readings indicate an effect from little substance, high ones a need for much substance. For the molecule B1, the “抑制A431细胞的增殖 IC50 (CCK-8)” value with 野生型EGFR on A431 cells is 0.709 nM. Further, the EC50 with PD-L1-His [1] is 0.2 nM; with EGFR-ECD-hFc [2] it was 0.239 nM.

B2: Cetuximab-Fab-PDL1-IgG1 (bispecific antibody)
heavy: not shown
light: EIVLTQSPDFLSVTPKEKVTITCRASQSIGTTIHWYQQKPDQSPKLLIKYASQSFSGVPSRFSGSGSGTDFTLTINSVEAEDAATYYCQQSNSWPLTFGAGTKLEIKRTVAAPSVFIFPPSDEQLKSGTASVVCLLNNFYPREAKVQWKVDNALQSGNSQESVTEQDSKDSTYSLSSTLTLSKADYEKHKVYACEVTHQGLSSPVTKSFNRGEC
notes: as for B1
For the molecule B2, the “抑制A431细胞的增殖 IC50 (CCK-8)” value with 野生型EGFR on A431 cells was determined as 0.96 nM. Further, the 50% effective concentration (EC50) with PD-L1-His [1] turned out to be 0.336 nM; in the assay with EGFR-ECD-hFc [2], 0.185 nM.

B3: Cetuximab-HC+Anti-PDL1-LC (antibody, V domains shown)
VH: not shown
VL: EIVLTQSPDFLSVTPKEKVTITCRASQSIGTTIHWYQQKPDQSPKLLIKYASQSFSGVPSRFSGSGSGTDFTLTINSVEAEDAATYYCQQSNSWPLTFGAGTKLEIKR
notes: Hybrid antibody: heavy chain of Cetuximab with the light chain of Anti-PDL1 (the common light chain)
B3: in the assay with 野生型EGFR on A431 cells, the “抑制A431细胞的增殖 IC50 (CCK-8)” value was 0.563 nM. Moreover, the binding result with PD-L1-His [3] was “no binding”. In addition, the concentration giving a half-maximal response (EC50) with EGFR-ECD-hFc [4] was 0.248 nM; in the assay with EGFR-ECD-hFc [2], 0.225 nM.
